In US9642898B2, “Use of serine protease inhibitors in the treatment of neutropenia” (Med Discovery S.A., priority 2009, dated 2017):

What was measured:
neutrophils [1] = assay: CD16 / CD11b surface expression of cultured neutrophils by FACS; type: cell-based, human
Procedure: (§1) To assess viability of neutrophils in-vitro, peripheral blood from healthy donors was erythrocyte-lyzed and neutrophils or peripheral blood mononuclear cells (PBMCs) were isolated. Cultures in RPMI10%FCS were performed in 96 well microtiter plates (5×10^5cells/well) unless otherwise stated. The percentage of apoptotic neutrophils or PBMCs was assessed based on binding of fluorescent Annexin V-protein binding or measuring of CD11b or CD16 surface expression by FACS (fluorescent activated cell sorter) analysis.
Neutrophils were cultured with the indicated concentrations of MDPK67b and percentage of neutrophils expressing high levels of CD16 or CD11b was assessed by FACS. Representative FACS plots are shown.
(§2) Neutrophils were cultured with the indicated concentrations of MDPK67b in presence or absence of the Src tyrosine kinase inhibitor PP2 (final concentration 10 μM). Apoptosis and relative frequencies of CD11b and CD16 high expressing neutrophils were measured by FACS analysis.

neutrophils [2] = assay: Annexin-V staining / FACS analysis of neutrophil apoptosis in vitro; type: cell-based, human
Procedure: as §1
(§3) Cells were incubated for 24 or 48 hours with MDPK67b at concentrations ranging from 6 μM to 60 μM, as indicated, or PBS as control. Apoptosis was assessed by Annexin V staining and FACS analysis. Indicated leukocyte populations were gated based on their appearance in a forward scatter/sideward scatter FACS dot plot (neutrophils) or by positive staining for CD3 (T cells).
Neutrophils were incubated for 18 hours with MDPK67b or MDOKG9 concentrations ranging from 60 μM (dilution 1) to […] as indicated. Apoptosis was assessed as outlined above.
Neutrophils were cultured with the indicated concentrations of MDPK67b. PBS without MDPK67b served as a control. Neutrophils were plated (100 μl/well) either at 5×10^6/ml (high density) or 3×10^5/ml (low density) and neutrophil apoptosis was assessed by AnnexinV staining and FACS analysis. Culturing of 5×10^6/ml neutrophils in serum free medium (X-Vivo 15) instead of RPMI10% FCS was assessed in parallel.
as §2
Neutrophils were cultured with the indicated concentrations of G-CSF and neutrophil Apoptosis (FIG. 6A) and down-regulation of CD 16 expression (FIG. 6B) were analyzed by FACS. FIG. 6C: Neutrophils were cultured with MDPK67b (0.6 μM) and titrated amounts of G-CSF (concentrations as indicated). Neutrophils cultured in medium and PBS (without MDPK67b) served as a control.
Cells were incubated during 18 hours with MDPK67b (6 μM) plus Etoposid (125 μg/ml), Etoposid alone or PBS. Apoptosis was assessed by Annexin V staining and FACS analysis. Relevant leukocyte populations were gated based on their appearance in a forward scatter or sideward scatter FACS dot plot.
Cells were incubated for 18 hours with MDPK67b (0.06 μM) alone or MDPK67b (0.06 μM) plus increasing concentrations of Etopsid (in μg/ml) as indicated or PBS. Apoptosis was assessed by Annexin V staining and FACS analysis was performed as mentioned above.

monocytes or lymphocytes = assay: Annexin-V staining / FACS analysis of monocytes or lymphocytes (PBMCs); type: cell-based, human
Procedure: as §1, §3

T cells = assay: Annexin-V staining / FACS analysis of T cells (CD3 positive); type: cell-based, human; details: 24 or 48 hours
Procedure: as §1, §3

neutrophils [3] = assay: Annexin-V staining / FACS analysis of neutrophil apoptosis in vitro; type: cell-based, human; details: doses ranging from 60 μM down to 0.6 μM; 18, 24 or 48 hours; PBS control
hK3 = hK3 (Homo sapiens, UniProt P07288); assay: Inhibition of kallikrein hK3 by chimeric serpin; type: biochemical
hK2 = hK2 (Homo sapiens, UniProt P20151); assay: Inhibition of kallikrein hK2 by chimeric serpin; type: biochemical
Source text: These chimeric inhibitor proteins have been obtained by modifying the RSL of α1-antichymotrypsin (rACT), which is known to inhibit a large panel of human enzymes such as chymotrypsin, mast cell chymase , cathepsin G , prostatic kallikreins hK2 and PSA (hK3), in order to change the specificity of this serpin. Peptide sequences, selected as substrates for the enzyme hK2 by phage display technology as explained in International Patent Application PCT/IB2004/001040, have been used to replace the scissile bond and neighbor amino acid residues of the RSL. Recombinant inhibitors were produced in bacteria and purified by affinity chromatography.

[4] = neutrophils cultured with MDPK67b plus kinase inhibitor (PP2 final concentration 10 μM)

Sequence of hK2 (P20151 25-261): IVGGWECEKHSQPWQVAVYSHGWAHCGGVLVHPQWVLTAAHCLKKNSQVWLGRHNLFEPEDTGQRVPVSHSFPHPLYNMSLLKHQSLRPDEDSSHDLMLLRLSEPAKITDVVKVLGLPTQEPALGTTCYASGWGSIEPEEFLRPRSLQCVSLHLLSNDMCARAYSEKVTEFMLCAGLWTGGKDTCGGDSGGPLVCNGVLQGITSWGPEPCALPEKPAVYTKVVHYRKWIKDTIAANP
Sequence of hK3 (P07288 25-261): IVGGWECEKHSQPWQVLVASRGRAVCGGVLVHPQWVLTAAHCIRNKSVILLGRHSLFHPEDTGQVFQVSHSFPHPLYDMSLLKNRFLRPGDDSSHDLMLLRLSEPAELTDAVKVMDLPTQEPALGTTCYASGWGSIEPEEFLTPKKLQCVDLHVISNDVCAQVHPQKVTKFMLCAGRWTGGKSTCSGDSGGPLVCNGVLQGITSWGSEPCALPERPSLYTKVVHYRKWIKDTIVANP

CC(C)(C)n1nc(-c2ccc(Cl)cc2)c2c(N)ncnc21 [PP2, reference compound]
reversal of the increased frequency of CD11b high expressing neutrophils in the presence of MDPK67b by kinase inhibitor (neutrophils [1]; [4]): can be reversed
reversal of the decreased apoptosis in the presence of MDPK67b by kinase inhibitor (neutrophils [2]; [4]): can be reversed

COc1cc([C@@H]2c3cc4c(cc3[C@@H](O[C@@H]3O[C@@H]5CO[C@@H](C)O[C@H]5[C@H](O)[C@H]3O)[C@H]3COC(=O)[C@H]23)OCO4)cc(OC)c1O [Etoposid, reference compound]
block of the apoptosis reducing effect of MDPK67b (neutrophils [2]; Etoposid up to 125 μg/ml, 18 hours): only partially block

B1: MDPK67b: chimeric inhibitor protein specific for hK2, modified RSL of α1-antichymotrypsin; amino acid sequence SEQ ID NO 16 (protein)
chain: MHPNSPLDEENLTQENQDRGTHVDLGLASANVDFAFSLYKQLVLKAPDKNVIFSPLSISTALAFLSLGAHNTTLTEILKGLKFNLTETSEAEIHQSFQHLLRTLNQSSDELQLSMGNAMFVKEQLSLLDRFTEDAKRLYGSEAFATDFQDSAAAKKLINDYVKNGTRGKITDLIKDLDSQTMMVLVNYIFFKAKWEMPFDPQDTHQSRFYLSKKKWVMVPMMSLHHLTIPYFRDEELSCTVVELKYTGNASALFILPDQDKMEEVEAMLLPETLKRWRDSLEFREIGELYLPKFSISRDYNLNDILLQLGIEEAFTSKADLSGITGARNLAVSQVVHKAVLDVFEEGTEASAATAVKIKLRTTLVETRTIVRFNRPFLMIIVPTDTQNIFFMSKVTNPKQA
frequency of neutrophils that express CD16 and CD11b at high levels (neutrophils [1]; indicated concentrations of MDPK67b): increases dose-dependently
apoptosis of monocytes or lymphocytes (monocytes or lymphocytes): did not inhibit apoptosis of monocytes or lymphocytes
T-cell survival (Annexin V staining) (T cells): No Significant Effect on T-cell Survival
protection of neutrophils from apoptosis compared to G-CSF (neutrophils [2]): Superior Effect
apoptosis of neutrophils under various culture conditions (neutrophils [2]; 5×10^6/ml (high density) or 3×10^5/ml (low density), RPMI10% FCS or serum free medium (X-Vivo 15)): inhibits apoptosis of neutrophils in vitro independently of cell density and presence or absence of serum
cytostatic drug-induced apoptosis of neutrophils (neutrophils [2]; 18 hours, MDPK67b (6 μM or 0.06 μM) plus Etoposid): Reduces Cytostatic Drug-induced Apoptosis of Neutrophils
effect of MDPK67b on neutrophil apoptosis in presence of G-CSF (neutrophils [2]; MDPK67b (0.6 μM) and titrated amounts of G-CSF): not affected by G-CSF
apoptosis of neutrophils (Annexin V staining) (neutrophils [3]): inhibit apoptosis of neutrophils

B2: G-CSF (protein, UniProt P09919 31-207, looked up)
Granulocyte …: TPLGPASSLPQSFLLKCLEQVRKIQGDGAALQEKLVSECATYKLCHPEELVLLGHSLGIPWAPLSSCPSQALQLAGCLSQLHSGLFLYQGLLQALEGISPELGPTLDTLQLDVADFATTIWQQMEELGMAPALQPTQGAMPAFASAFQRRAGGVLVASHLQSFLEVSYRVLRHLAQP
notes: present agent used for the treatment of neutropenia
effect on neutrophil apoptosis, alone (neutrophils [2]; G-CSF alone, indicated concentrations): only a mild protecting effect

B3: MDCI: chimeric inhibitor: P3-P3′ of rACTWT RSL replaced by RSL of Protein C inhibitor; SEQ ID No 14 (protein)
chain: MRGSHHHHHHSRHPNSPLDEENLTQENQDRGTHVDLGLASANVDFAFSLYKQLVLKAPDKNVIFSPLSISTALAFLSLGAHNTTLTEILKGLKFNLTETSEAEIHQSFQHLLRTLNQSSDELQLSMGNAMFVKEQLSLLDRFTEDAKRLYGSEAFATDFQDSAAAKKLINDYVKNGTRGKITDLIKDLDSQTMMVLVNYIFFKAKWEMPFDPQDTHQSRFYLSKKKWVMVPMMSLHHLTIPYFRDEELSCTVVELKYTGNASALFILPDQDKMEEVEAMLLPETLKRWRDSLEFREIGELYLPKFSISRDYNLNDILLQLGIEEAFTSKADLSGITGARNLAVSQVVHKAVLDVFEEGTEASAATAVKITFRSALVETRTIVRFNRPFLMIIVPTDTQNIFFMSKVTNPKQA
inhibition of kallikrein hK3 (hK3): able to inhibit
inhibition of kallikrein hK2 (hK2): able to inhibit
